Assay results: article PMC11937253

B1: Nanobody B6R-02 (VHH)
VHH: QVQLVESGGGLVQAGGSLRLSCAASGRIFRRNVMGWYRQAPGKEREFVAAITKGGYTNYADSVKGRFTISRDNAKNTVYLQMNSLKPEDTAVYYCAARYFHRKRHKWRHDYWGQGTQVTVSS
B2: Nanobody B6R-03 (VHH)
VHH: QVQLVESGGGLVQAGGSLRLSCAASGRILHRKGMGWYRQAPGKEREFVAAINKGGSTNYADSVKGRFTISRDNAKNTVYLQMNSLKPEDTAVYYCAVGKKRRTWINRHYDYWGQGTQVTVSS
B3: Nanobody B6R-06 (VHH)
VHH: QVQLVESGGGLVQAGGSLRLSCAASGRIFRKRNMGWYRQAPGKEREFVASISRGSNTYYADSVKGRFTISRDNAKNTVYLQMNSLKPEDTAVYYCAVWRHRTFVRWKHFDYWGQGTQVTVSS
B4: Nanobody B6R-04 (VHH)
VHH: QVQLVESGGGLVQAGGSLRLSCAASGRIFASDRMGWYRQAPGKEREFVAAISYGSRTNYADSVKGRFTISRDNAKNTVYLQMNSLKPEDTAVYYCAVWAFHRSWKERSHWHDYWGQGTQVTVSS
B5: Nanobody B6R-05 (VHH)
VHH: QVQLVESGGGLVQAGGSLRLSCAASGRIFHPGAMGWYRQAPGKEREFVAGISSGGNTYYADSVKGRFTISRDNAKNTVYLQMNSLKPEDTAVYYCAAPFRWVKATGRFLDYWGQGTQVTVSS
B6: Nanobody M1R-02 (VHH)
VHH: QVQLVESGGGLVQAGGSLRLSCAASGFIFDHWEMGWYRQAPGKEREFVASISAGLSTNYADSVKGRFTISRDNAKNTVYLQMNSLKPEDTAVYYCAARHFTAVFWKNSYDYWGQGTQVTVSS
B7: Nanobody M1R-05 (VHH)
VHH: QVQLVESGGGLVQAGGSLRLSCAASGFIFYAWHMGWYRQAPGKERELVASIAYGGDTNYADSVKGRFTISRDNAKNTVYLQMNSLKPEDTAVYYCAAVHFTHHKWDQEYDYWGQGTQVTVSS
B8: Nanobody M1R-03 (VHH)
VHH: QVQLVESGGGLVQAGGSLRLSCAASGSIFETGAMGWYRQAPGKEREFVAAITGWDTNYADSVKGRFTISRDNAKNTVYLQMNSLKPEDTAVYYCAASHWISFYWEHYHPYDYWGQGTQVTVSS
B9: Nanobody H3L-02 (VHH)
VHH: QVQLVESGGGLVQAGGSLRLSCAASGRIFLHRIMGWYRQAPGKERELVASISRGDNTYYADSVKGRFTISRDNAKNTVYLQMNSLKPEDTAVYYCAAGTGRHKDDHKDYDYWGQGTQVTVSS
B10: Nanobody H3L-01 (VHH)
VHH: QVQLVESGGGLVQAGGSLRLSCAASGRIFWWVPMGWYRQAPGKEREFVAGISKGDSTYYADSVKGRFTISRNNAKNTVYLQMNSLKPEDTAVYYCAANPRNNRFRAGVYDYWGQGTQVTVSS
B11: Nanobody H3L-03 (VHH)
VHH: QVQLVESGGGLVQAGGSLRLSCAASGRIFFFAKMGWYRQAPGKEREFVASIVYGDITYYADSVKGRFTISRDNAKNTVYLQMNSLKPEDTAVYYCAAKPHWPSRRPRRYDYWGQGTQVTVSS
B12: Nanobody E8L-07 (VHH)
VHH: QVQLVESGGGLVQAGGSLRLSCAASGSIFKRYKMGWYRQAPGKEREFVACINKGGDTNYADSVKGRFTISRDNAKNTVYLQMNSLKPEDTAVYYCAVKRHAKAYGEFFYDYWGQGTQVTVSS
B13: Nanobody E8L-06 (VHH)
VHH: QVQLVESGGGLVQAGGSLRLSCAASGFIFTSTRMGWYRQAPGKEREFVAGISIGGNTNYADSVKGRFTISRDNAKNTVYLQMNSLKPEDTAVYYCAARYYYFHNHNFAYDYWGQGTQVTVSS
B14: Nanobody E8L-04 (VHH)
VHH: QVQLVESGGGLVQAGGSLRLSCAASGRIFGRRAMGWYRQAPGKEREFVAAISNGFNTNYADSVKGRFTISRDNAKNTVYLQMNSLKPEDTAVYYCAATVSRRGEQTFFYDYWGQGTQVTVSS
B15: Nanobody E8L-05 (VHH)
VHH: QVQLVESGGGLVQAGGSLRLSCAASGRIFDTVEMGWYRQAPGKEREFVASISGGDSTYYADSVKGRFTISRDNAKNTVYLQMNSLKPEDTAVYYCAARSARNRWSIIFYDYWGQGTQVTVSS
B16: Nanobody E8L-03 (VHH)
VHH: QVQLVESGGGLVQAGGSLRLSCAASGFIFTTRGMGWYRQAPGKEREFVACIFPGSSTNYADSVKGRFTISRDNAKNTVYLQMNSLKPEDTAVYYCAAEGPYRGFNFKKNLYDYWGQGTQVTVSS
B17: Nanobody E8L-08 (VHH)
VHH: QVQLVESGGGLVQAGGSLRLSCAASGFIFTNWGMGWYRQAPGKERELVAAITSGSSTNYADSVKGRFTISRDNAKNTVYLQMNSLKPEDTAVYYCAAIRGFSLIYQFFAQYDYWGQGTQVTVSS
B18: Nanobody E8L-01 (VHH)
VHH: QVQLVESGGGLVQAGGSLRLSCAASGRIFINRVMGWYRQAPGKEREFVAGIAQGGSTNYADSVKGRFTISRDNAKNTVYLQMNSLKPEDTAVYYCAAKFWNWHHDHRGYDYWGQGTQVTVSS
B19: Nanobody E8L-02 (VHH)
VHH: QVQLVESGGGLVQAGGSLRLSCAASGRIFTDSYMGWYRQAPGKEREFVACITTGSSTYYADSVKGRFTISRDNAKNTVYLQMNSLKPEDTAVYYCAARFRYTVQHWFHTKFDYWGQGTQVTVSS

Each binder was assayed against MPXV B6R ectodomain, His-tagged recombinant protein (mpox virus (MPXV), isolate MPXV_USA_2022_MA001) (assay: SPR; BiaCore T200; […]; 1:1 binding model).
B1 gave a Kd of 14 µM, a koff of 0.0029 s⁻¹ and a kon of 209 M⁻¹ s⁻¹. Binder B2 has a Kd of 3.18 µM, a koff of 0.349 s⁻¹ and a kon of 110000 M⁻¹ s⁻¹. B3 was tested, and the Kd was 0.0121 µM, the koff was 0.0056 s⁻¹ and the kon was 462000 M⁻¹ s⁻¹. With B4 the Kd was 1.03 µM, the koff was 0.0412 s⁻¹ and the kon was 39900 M⁻¹ s⁻¹. Work on B5 yielded a Kd of 95.4 µM, a koff of 0.0008 s⁻¹ and a kon of 8.9 M⁻¹ s⁻¹.

These binders were tested against MPXV M1R ectodomain, His-tagged recombinant protein (mpox virus (MPXV), isolate MPXV_USA_2022_MA001) (assay: SPR; BiaCore T200; […]; 1:1 binding model).
B6 was tested, and the Kd was 0.0235 µM, the koff was 0.0016 s⁻¹ and the kon was 68300 M⁻¹ s⁻¹. In the case of B7, the Kd is reported as 0.0859 µM, the koff is reported as 0.0037 s⁻¹ and the kon is reported as 42800 M⁻¹ s⁻¹. B8 gave a Kd of 0.0249 µM, a koff of 0.0401 s⁻¹ and a kon of 1.61e+06 M⁻¹ s⁻¹.

What follows are binders tested against MPXV H3L ectodomain, His-tagged recombinant protein (mpox virus (MPXV), isolate MPXV_USA_2022_MA001) (assay: SPR; BiaCore T200; […]; 1:1 binding model).
In the case of B9, the Kd is reported as 0.0948 µM, the koff is reported as 0.0725 s⁻¹ and the kon is reported as 765000 M⁻¹ s⁻¹. B10 gave a Kd of 0.0112 µM, a koff of 0.0209 s⁻¹ and a kon of 1.87e+06 M⁻¹ s⁻¹. In the case of B11, the Kd is reported as 0.0352 µM, the koff is reported as 0.0092 s⁻¹ and the kon is reported as 261000 M⁻¹ s⁻¹.

These binders were tested against MPXV E8L ectodomain, His-tagged recombinant protein (mpox virus (MPXV), isolate MPXV_USA_2022_MA001) (assay: SPR; BiaCore T200; […]; 1:1 binding model).
B12 showed a Kd of 0.00317 µM, a koff of 0.0018 s⁻¹ and a kon of 539000 M⁻¹ s⁻¹. For B13, the Kd was 0.0116 µM, the koff was 0.0105 s⁻¹ and the kon was 910000 M⁻¹ s⁻¹. With B14 the Kd was 0.00177 µM, the koff was 0.0015 s⁻¹ and the kon was 876000 M⁻¹ s⁻¹. B15 gave a Kd of 0.00239 µM, a koff of 0.002 s⁻¹ and a kon of 838000 M⁻¹ s⁻¹. In the case of B16, the Kd is reported as 0.00581 µM, the koff is reported as 0.0034 s⁻¹ and the kon is reported as 662000 M⁻¹ s⁻¹. For B17, the Kd was 0.00311 µM, the koff was 0.002 s⁻¹ and the kon was 646000 M⁻¹ s⁻¹. With B18 the Kd was 0.00066 µM, the koff was 0.0029 s⁻¹ and the kon was 4.35e+06 M⁻¹ s⁻¹. B19 showed a Kd of 0.00169 µM, a koff of 0.0003 s⁻¹ and a kon of 184000 M⁻¹ s⁻¹.
